Article PMC6764681

Columns and labels:
[1] = target: Man5-enriched stabilized CH505TF.N279K.G458Y.SOSIP.664 Env trimer (made in 293S GnT1- cells) (HIV-1 clade C, strain CH505 transmitted/founder | HIV-1 clade A, strain BG505) (UniProt Q2N0S6)
[2] = target: CH505TF.N279K.G458Y Env on pseudovirus produced in 293T cells (not Man5-enriched) (HIV-1 clade C, strain CH505 transmitted/founder)
[3] = target: Man5-enriched CH505TF.G458Y Env on pseudovirus produced in 293S GnT1- cells (HIV-1 clade C, strain CH505 transmitted/founder); conditions: scale: fold less susceptible than the Man5-enriched double mutant
[4] = target: Man5-enriched CH505TF.N279K Env on pseudovirus produced in 293S GnT1- cells (HIV-1 clade C, strain CH505 transmitted/founder); conditions: scale: fold less susceptible than the Man5-enriched double mutant
[5] = target: CH235 UCA2 (unmutated common ancestor of the CH235/CH235.12 lineage), IgG (human); assay: SPR; Biacore 3000; CH235 UCA2 antibody captured (200-350 RU) by goat anti-human IgG Fc immobilised on a CM3 chip; SOSIP trimers 50-750 nM in HBS-EP+ injected 5 min at 50 ul/min, 10 min dissociation; 1:1 Langmuir model with local Rmax; apparent KD, average of two measurements
[6] = target: CH235 UCA2 (unmutated common ancestor of the CH235/CH235.12 lineage), IgG; assay: SPR; conditions: apparent KD, average of two measurements
[7] = target: Man5-enriched stabilized CH505TF.N279K.G458Y.SOSIP.664 Env trimer (made in 293S GnT1- cells) (HIV-1 clade C, strain CH505 transmitted/founder | HIV-1 clade A, strain BG505) (UniProt Q2N0S6); assay: cryo-EM structure; trimer at 1 mg/ml incubated with 4-5-fold molar excess of CH235 UCA2 Fab for 30-60 minutes, 0.085 mM dodecyl-maltoside; C3 symmetry, 4.2 Å
[8] = trimer produced in 293S GnT1- cells
[9] = trimer produced in Freestyle293 (293F) cells, parent: NB

Sequence of CH235 UCA2 (unmutated common ancestor of the CH235/CH235.12 lineage), IgG (human) (heavy, as listed by the source, chain 1 of 2): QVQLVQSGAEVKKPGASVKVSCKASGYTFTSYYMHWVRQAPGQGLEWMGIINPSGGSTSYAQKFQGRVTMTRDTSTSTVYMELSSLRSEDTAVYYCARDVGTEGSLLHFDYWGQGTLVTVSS
Sequence of CH235 UCA2 (unmutated common ancestor of the CH235/CH235.12 lineage), IgG (human) (light, as listed by the source, chain 2 of 2): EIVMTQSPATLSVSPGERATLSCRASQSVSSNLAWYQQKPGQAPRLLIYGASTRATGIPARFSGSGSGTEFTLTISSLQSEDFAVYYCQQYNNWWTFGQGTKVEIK

CH235 UCA2 (unmutated common ancestor of the CH235/CH235.12 lineage), IgG (antibody)
IC50 of neutralization of Man5-enriched (293S GnT1-) CH505TF.N279K.G458Y Env-pseudotyped virus in TZM-bl cells (full-length Env on virus, not the SOSIP) [1]: 0.04 µg/mL
IC50 of neutralization of CH505TF.N279K.G458Y Env-pseudotyped virus that was not Man5-enriched, in TZM-bl cells [2]: 9.2 µg/mL
neutralization in TZM-bl cells: fold less susceptible than the Man5-enriched double mutant [3]: 973
neutralization in TZM-bl cells: fold less susceptible than the Man5-enriched double mutant [4]: 92

Man5-enriched stabilized CH505TF.N279K.G458Y.SOSIP.664 Env trimer (made in 293S GnT1- cells) (from UniProt Q2N0S6 1-860) (complex)
Kd [5]: 9 nM

Man5-enriched stabilized parental CH505TF SOSIP.664 Env trimer (made in 293S GnT1- cells) (from UniProt Q2N0S6) N279K
Kd [6, 8]: 28 nM

CH235 UCA2 Fab
stoichiometry N (Fabs per Env trimer) [7]: 3

Man5-enriched stabilized parental CH505TF SOSIP.664 Env trimer (made in 293S GnT1- cells) (from UniProt Q2N0S6) G458Y
Kd [6, 8]: 996 nM

CH505TF SOSIP.664 v4.1 (293F) N279K
Kd [6, 9]: 154 nM

CH505TF SOSIP.664 v4.1 (293F) N279K; G458Y
Kd [6, 9]: 83 nM
